For 1 molecule, Kd results are on record in paper PMC11739670 (2024).

For test [1], the target named is HLA-A*03:01 peptide-MHC class I (biotinylated pMHCI) (human | , biotin on the Avi-tag (BirA ligase)). The experiment in a line: SPR; average over HLA-A3 peptides, 25°C. On the technique in general: In SPR one partner is held on a chip, and binding of the other changes the refractive index at the surface.
Test [2] addresses HLA-A*01:01 peptide-MHC class I (biotinylated pMHCI) (human | , biotin on the Avi-tag (BirA ligase)). Kind of test: SPR; average over HLA-A1 peptides, 25°C.
The target in test [3] is HLA-A*24:02 peptide-MHC class I (biotinylated pMHCI) (human | , biotin on the Avi-tag (BirA ligase)). The experiment in a line: SPR; average over HLA-A24 peptides, 25°C.

B1: soluble human CD8αβ-Fc heterodimer (Fc fusion)
chain 1: not shown
chain 2: LQQTPAYIKVQTNKMVMLSCEAKISLSNMRIYWLRQRQAPSSDSHHEFLALWDSAKGTIHGEEVEQEKIAVFRDASRFILNLTSVKPEDSGIYFCMIVGSPELTFGKGTQLSVVDFLPTTAQPTKKSTLKKRVCRLPRPETQKGPLCSP
The term Kd denotes the equilibrium constant for the complex coming apart. A low value points to a tighter complex. Regarding B1, the dissociation constant Kd in test [1] worked out at 133 µM; in test [2] it was 120 µM; in test [3] it was 214 µM.
